Earlier results on 1 substance are cited in publication PMC3061301.

As a reminder, the Kd is the concentration at which binding is half-saturated.

The data set concerns the target PTP-BL (Mus musculus) (UniProt Q64512). In words: surface plasmon resonance. A general note: In SPR one partner is held on a chip, and binding of the other changes the refractive index at the surface.
Sequence of UniProt Q64512 (Q64512 whole entry): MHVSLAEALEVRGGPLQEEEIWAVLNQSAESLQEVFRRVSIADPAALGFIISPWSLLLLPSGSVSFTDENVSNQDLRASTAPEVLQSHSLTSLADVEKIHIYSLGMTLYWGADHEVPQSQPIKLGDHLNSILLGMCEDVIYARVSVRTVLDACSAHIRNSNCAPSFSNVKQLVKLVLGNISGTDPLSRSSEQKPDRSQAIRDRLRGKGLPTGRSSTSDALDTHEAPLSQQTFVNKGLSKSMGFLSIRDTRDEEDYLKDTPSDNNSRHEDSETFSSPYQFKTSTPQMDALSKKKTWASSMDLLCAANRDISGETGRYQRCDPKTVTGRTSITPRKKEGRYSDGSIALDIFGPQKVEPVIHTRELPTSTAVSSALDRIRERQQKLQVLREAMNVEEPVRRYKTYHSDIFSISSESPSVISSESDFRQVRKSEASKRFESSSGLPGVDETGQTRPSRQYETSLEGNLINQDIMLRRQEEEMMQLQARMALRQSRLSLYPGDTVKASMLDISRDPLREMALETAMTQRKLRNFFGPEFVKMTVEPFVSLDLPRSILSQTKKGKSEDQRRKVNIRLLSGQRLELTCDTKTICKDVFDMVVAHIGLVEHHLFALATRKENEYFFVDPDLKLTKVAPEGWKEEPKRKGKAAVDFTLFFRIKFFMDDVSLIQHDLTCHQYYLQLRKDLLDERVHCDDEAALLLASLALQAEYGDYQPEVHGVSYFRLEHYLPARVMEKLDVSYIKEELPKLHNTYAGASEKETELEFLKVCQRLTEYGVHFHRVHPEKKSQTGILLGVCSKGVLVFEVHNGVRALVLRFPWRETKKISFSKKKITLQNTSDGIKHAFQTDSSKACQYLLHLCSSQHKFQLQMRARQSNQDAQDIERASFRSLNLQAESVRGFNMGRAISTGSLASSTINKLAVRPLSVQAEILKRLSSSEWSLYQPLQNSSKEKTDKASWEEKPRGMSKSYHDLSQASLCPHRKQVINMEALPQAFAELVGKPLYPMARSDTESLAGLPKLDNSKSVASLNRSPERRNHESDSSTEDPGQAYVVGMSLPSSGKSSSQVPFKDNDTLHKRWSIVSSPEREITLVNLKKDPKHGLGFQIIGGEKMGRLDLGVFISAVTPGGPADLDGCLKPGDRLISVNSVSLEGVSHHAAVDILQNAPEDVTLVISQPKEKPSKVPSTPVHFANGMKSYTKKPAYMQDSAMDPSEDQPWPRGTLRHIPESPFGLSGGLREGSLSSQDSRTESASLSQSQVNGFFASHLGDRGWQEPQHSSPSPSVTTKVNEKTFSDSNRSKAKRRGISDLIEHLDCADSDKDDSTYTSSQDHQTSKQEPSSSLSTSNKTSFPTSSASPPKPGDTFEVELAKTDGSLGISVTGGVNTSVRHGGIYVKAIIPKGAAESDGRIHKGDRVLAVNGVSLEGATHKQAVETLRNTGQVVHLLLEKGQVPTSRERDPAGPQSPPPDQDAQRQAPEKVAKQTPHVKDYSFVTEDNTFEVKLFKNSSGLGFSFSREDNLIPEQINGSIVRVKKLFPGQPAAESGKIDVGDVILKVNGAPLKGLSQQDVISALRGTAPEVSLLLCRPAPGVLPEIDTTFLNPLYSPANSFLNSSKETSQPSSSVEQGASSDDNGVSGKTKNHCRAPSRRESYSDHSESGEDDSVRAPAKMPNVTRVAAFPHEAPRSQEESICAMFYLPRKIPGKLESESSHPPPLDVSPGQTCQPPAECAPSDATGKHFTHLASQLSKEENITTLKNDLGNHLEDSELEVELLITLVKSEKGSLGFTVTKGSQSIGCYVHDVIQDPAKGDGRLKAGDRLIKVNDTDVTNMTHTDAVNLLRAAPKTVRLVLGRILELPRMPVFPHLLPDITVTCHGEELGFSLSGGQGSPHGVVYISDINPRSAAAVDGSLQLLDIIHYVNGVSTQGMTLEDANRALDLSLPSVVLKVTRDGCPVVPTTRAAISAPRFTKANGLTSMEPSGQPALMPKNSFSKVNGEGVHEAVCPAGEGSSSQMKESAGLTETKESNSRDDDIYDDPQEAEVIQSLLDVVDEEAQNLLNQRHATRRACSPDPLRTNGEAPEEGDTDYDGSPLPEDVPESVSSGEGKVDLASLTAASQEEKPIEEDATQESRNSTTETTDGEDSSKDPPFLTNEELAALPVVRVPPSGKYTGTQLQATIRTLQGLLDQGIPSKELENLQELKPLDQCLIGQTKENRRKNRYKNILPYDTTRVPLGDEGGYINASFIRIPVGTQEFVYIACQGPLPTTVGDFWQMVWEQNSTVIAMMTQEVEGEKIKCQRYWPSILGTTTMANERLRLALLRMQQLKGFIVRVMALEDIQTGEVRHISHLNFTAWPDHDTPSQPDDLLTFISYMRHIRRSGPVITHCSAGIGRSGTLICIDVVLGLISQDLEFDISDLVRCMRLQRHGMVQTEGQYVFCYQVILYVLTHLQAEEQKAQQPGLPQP

Take “APC C-terminal 19 amino acids (from UniProt P25054)”: the Kd is 8 nM.
